Assay results as given in paper PMC3898117 (Biochemical Journal, 2013).

Biological target: recombinant RNMT (RNA guanine-7 methyltransferase) (UniProt O43148 1-476)
Experiment: cell-based or functional assay

recombinant RNMT (RNA guanine-7 methyltransferase), sequence (O43148 whole entry): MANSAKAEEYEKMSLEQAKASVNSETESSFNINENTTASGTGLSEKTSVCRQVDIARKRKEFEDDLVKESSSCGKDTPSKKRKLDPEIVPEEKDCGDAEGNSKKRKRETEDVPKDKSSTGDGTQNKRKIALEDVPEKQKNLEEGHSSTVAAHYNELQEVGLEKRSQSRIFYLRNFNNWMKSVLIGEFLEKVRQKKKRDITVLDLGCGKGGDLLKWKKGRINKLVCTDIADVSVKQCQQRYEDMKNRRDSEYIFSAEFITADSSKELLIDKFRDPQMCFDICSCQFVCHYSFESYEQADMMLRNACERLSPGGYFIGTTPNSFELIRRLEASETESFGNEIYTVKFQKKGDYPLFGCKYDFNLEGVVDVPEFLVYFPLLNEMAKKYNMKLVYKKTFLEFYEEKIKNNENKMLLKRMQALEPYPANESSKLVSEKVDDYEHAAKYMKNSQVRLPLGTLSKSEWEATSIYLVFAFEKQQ

in vitro cap methyltransferase activity of 15 nM RNMT pre-incubated with 15 nM GST–RAM 1–55, compared with GST control: > 5 fold
B1: GST–RAM 1–55 (domain or fragment, human, UniProt Q9BTL3 1-55, looked up)
chain: MTDTAEAVPKFEEMFASRFTENDKEYQEYLKRPPESPPIVEEWNSRAGGNQRNRG
